Measured values as given in patent US20140086935A1 (Bayer, published 2014).
Where two headings read alike, the source gives them in different places. One block for each binder: values may come before it.

Columns and labels:
human TIMP-1 [1] = target: T1, human TIMP-1 (human, UniProt P01033 24-207); assay: cell-based or functional assay
human TIMP-1 [2] = target: T1, human TIMP-1; assay: SPR (BIAcore), TIMP-1 coupled to chip, monovalent Fab
Procedure: (§1) For affinity determination, monomeric fractions of affinity and SEC purified Fab fragments or purified IgG1 molecules were used. All experiments were conducted in HBS buffer at a flow rate of 20 μl/min at 25° C. on a BIAcore™ instrument. Antigens in 100 mM sodium acetate pH 5.0 were coupled to a CM 5 sensor chip using standard EDC-NHS coupling chemistry. […] All sensograms were fitted globally using BIA evaluation software. For monovalent Fab fragments a monovalent fit (Langmuir binding) and for IgGs a bivalent fit was applied.

human TIMP-1 [3] = target: T1, human TIMP-1; assay: as above; remark: listed apart in the source
Procedure: as §1

human TIMP-1 [4] = target: T1, human TIMP-1; assay: cell-based or functional assay; remark: listed apart in the source
human TIMP-1 [5] = target: T1, human TIMP-1; assay: SPR (BIAcore); against the parental Fab (MS-BW-3, 13 nM; not given)
Procedure: as §1

human TIMP-1 [6] = target: T1, human TIMP-1; assay: cell-based or functional assay; remark: listed apart in the source
human TIMP-1 [7] = target: T1, human TIMP-1; assay: SPR (BIAcore), TIMP-1 coupled to chip, monovalent Fab; remark: listed apart in the source
Procedure: as §1

human TIMP-1 [8] = target: T1, human TIMP-1; assay: SPR (BIAcore); against the parental Fab (MS-BW-44-6, 0.6 nM; implied)
Procedure: as §1

human TIMP-1 [9] = target: T1, human TIMP-1; assay: SPR (BIAcore), monovalent Fab
Procedure: as §1

human TIMP-1 [10] = target: T1, human TIMP-1; assay: cell-based or functional assay; remark: listed apart in the source
human TIMP-1 [11] = target: T1, human TIMP-1; assay: SPR (BIAcore), monovalent Fab; against parental clone MS-BW-3 (best Fab and parent named in paragraph 170)
human TIMP-1 [12] = target: T1, human TIMP-1; assay: SPR (BIAcore); against the parental Fab (MS-BW-44-2, 0.5 nM; implied)
Procedure: as §1

rat TIMP-1 [13] = target: T2, rat TIMP-1 (rat, UniProt P30120 24-217); assay: cell-based or functional assay
rat TIMP-1 [14] = target: T2, rat TIMP-1; assay: cell-based or functional assay; remark: listed apart in the source
rat TIMP-1 [15] = target: T2, rat TIMP-1; assay: SPR (BIAcore), TIMP-1 coupled to chip, monovalent Fab
Procedure: as §1

rat TIMP-1 [16] = target: T2, rat TIMP-1; assay: SPR (BIAcore), rat TIMP-1 on chip, IgG1, bivalent (avidity)
Procedure: as §1
Affinity matured clone MS-BW-17-1 was then converted from a monovalent Fab fragment to a bivalent IgG₁. Protein was produced by stable transfection. Purified protein was subjected to quality control in BIAcore™ and rat TIMP-1/rat MMP-13 assays (FIG. 13).

human TIMP-1 [17] = target: T1, human TIMP-1; assay: SPR (BIAcore), human TIMP-1 on chip, IgG1, bivalent fit (avidity)
Procedure: as §1

rat TIMP-1 [18] = target: T2, rat TIMP-1; assay: SPR (BIAcore), TIMP-1 coupled to chip, monovalent Fab; remark: listed apart in the source
rat TIMP-1 [19] = target: T2, rat TIMP-1; assay: SPR (BIAcore), rat TIMP-1 on chip, monovalent Fab
Procedure: as §1

rat TIMP-1 [20] = target: T2, rat TIMP-1; assay: cell-based or functional assay; remark: listed apart in the source
rat TIMP-1 [21] = target: T2, rat TIMP-1; assay: cell-based or functional assay; remark: listed apart in the source
rat TIMP-1 [22] = target: T2, rat TIMP-1; assay: SPR (BIAcore), rat TIMP-1 on chip (500 RU), IgG1, bivalent fit (avidity)
Procedure: as §1
Anti-rat TIMP-1 clone MS-BW-14 was chosen for the first in vivo study, and IgG₁ protein was produced by transient expression. Anti-human TIMP-1 clone MS-BW-3 was selected as a negative control IgG₁ and was also produced by transient expression. Purified IgG₁ proteins MS-BW-14 and MS-BW-3 were subjected to quality control in BIAcore™ and rat TIMP-1/rat MMP-13 assays. […] This increase in affinity for the IgG₁ is due to the avidity effects caused by binding of bivalent IgG₁ to immobilized rat TIMP-1 protein on the BIAcore™ chip.

T2 sequence (P30120 24-217 limits assumed): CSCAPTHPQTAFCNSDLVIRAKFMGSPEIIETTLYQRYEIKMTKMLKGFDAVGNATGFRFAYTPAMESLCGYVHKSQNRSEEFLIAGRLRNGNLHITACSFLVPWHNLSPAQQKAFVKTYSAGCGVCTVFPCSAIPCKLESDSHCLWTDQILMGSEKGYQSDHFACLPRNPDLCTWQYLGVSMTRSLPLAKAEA

B1: MS-BW-44 (Fab, V domains shown)
VH: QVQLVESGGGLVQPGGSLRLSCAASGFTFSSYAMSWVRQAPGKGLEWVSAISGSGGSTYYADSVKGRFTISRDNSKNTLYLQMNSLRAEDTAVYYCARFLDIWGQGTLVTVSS
VL: DIALTQPASVSGSPGQSITISCTGTSSDVGGYNYVSWYQQHPGKAPKLMIYDVSNRPSGVSNRFSGSKSGNTASLTISGLQAEDEADYYCQSYDFVRFMVFGGGTKLTVLG
notes: Fab: heavy chain of MS-BW-3 with light chain of MS-BW-26; not tied by name
IC50 in human protease assay (modified, 0.4 nM TIMP-1 and MMP-1) (human TIMP-1 [1]): 2 nM
Kd (human TIMP-1 [2]): 2 nM
Kd (human TIMP-1 [3]): 2 nM
IC50 in human protease assay (human TIMP-1 [4]): 4 nM
IC50 in human protease assay (modified, decreased amounts of TIMP-1 and MMP-1) (human TIMP-1 [4]): 2 nM
improvement factor (Kd) (human TIMP-1 [5]): 6.5 fold
IC50 in human protease assay (human TIMP-1 [6]): 4 nM
Kd (human TIMP-1 [7]): 2 nM

B2: MS-BW-44-6-1 (Fab, V domains shown)
VH: QVQLVESGGGLVQPGGSLRLSCAASGFTFNSYAMSWVRQAPGKGLEWVSVISGNGSNTYYADSVKGRFTISRDNSKNTLYLQMNSLRAEDTAVYYCARFLDIWGQGTLVTVSS
VL: DIALTQPASVSGSPGQSITISCTGTSSDVGGYNYVSWYQQHPGKAPKLMIYDVSNRPSGVSNRFSGSKSGNTASLTISGLQAEDEADYYCQSYDFIRFMVFGGGTKLTVLG
notes: Fab from LCDR3 optimization of MS-BW-44-6
improvement factor (affinity) (human TIMP-1 [8]): 4 fold
Kd (human TIMP-1 [9]): 0.15 nM
Kd (human TIMP-1 [3]): 0.2 nM
IC50 in human protease assay (modified, decreased TIMP-1 and MMP-1) (human TIMP-1 [4]): 0.2 nM
improvement factor of activity in human TIMP-1/MMP-1 assay (against parental clone MS-BW-3) (human TIMP-1 [10]): 55 fold
improvement factor of monovalent affinity (human TIMP-1 [11]): 87 fold

B3: MS-BW-44-2-4 (Fab, V domains shown)
VH: QVQLVESGGGLVQPGGSLRLSCAASGFTFSSYAMSWVRQAPGKGLEWVSGISGNGVLIFYADSVKGRFTISRDNSKNTLYLQMNSLRAEDTAVYYCARGLMDYWGQGTLVTVSS
VL: DIALTQPASVSGSPGQSITISCTGTSSDVGGYNYVSWYQQHPGKAPKLMIYDVSNRPSGVSNRFSGSKSGNTASLTISGLQAEDEADYYCQSYDFVRFMVFGGGTKLTVLG
notes: Fab from HCDR3 optimization of MS-BW-44-2
improvement factor (affinity) (human TIMP-1 [12]): 2.5 fold
Kd (human TIMP-1 [3]): 0.2 nM
IC50 in human protease assay (modified, decreased TIMP-1 and MMP-1) (human TIMP-1 [4]): 0.2 nM
improvement factor with respect to the IC50 in human TIMP-1/MMP-1 assay (against the Fab of the previous maturation cycle, MS-BW-44-2) (human TIMP-1 [10]): 2 fold

B5: MS-BW-17-1 IgG1 (antibody, V domains shown)
VH: QVQLVQSGAEVKKPGESLKISCKGSGYSFTSYWIGWVRQMPGKGLEWMGIIYPGDSDTRYSPSFQGQVTISADKSISTAYLQWSSLKASDTAMYYCARLTNYFDSIYYDHWGQGTLVTVSS
VL: DIALTQPASVSGSPGQSITISCTGTSSDVGGYNYVSWYQQHPGKAPKLMIYDVSNRPSGVSNRFSGSKSGNTASLTISGLQAEDEADYYCQAFDVAPNGKVFGGGTKLTVL
notes: Fab MS-BW-17-1 converted to bivalent human IgG1
Kd (rat TIMP-1 [16]): 0.04 nM
IC50 (50 % reversal of the inhibition of rat MMP-13 by rat TIMP-1, fluorogenic peptide substrate assay) (rat TIMP-1 [14]): ~0.9 nM

Further lines, results first:

IC50 in rat protease assay (rat TIMP-1 [13]): 1.6 nM
IC50 (50 % reversal of the inhibition of rat MMP-13 by rat TIMP-1, fluorogenic peptide substrate assay) (rat TIMP-1 [14]): ~1.3 nM
Kd (rat TIMP-1 [15]): 0.8 nM
B4: MS-BW-17-1 (Fab, V domains shown)
VH: QVQLVQSGAEVKKPGESLKISCKGSGYSFTSYWIGWVRQMPGKGLEWMGIIYPGDSDTRYSPSFQGQVTISADKSISTAYLQWSSLKASDTAMYYCARLTNYFDSIYYDHWGQGTLVTVSS
VL: DIALTQPASVSGSPGQSITISCTGTSSDVGGYNYVSWYQQHPGKAPKLMIYDVSNRPSGVSNRFSGSKSGNTASLTISGLQAEDEADYYCQAFDVAPNGKVFGGGTKLTVLG
notes: Fab from LCDR3 optimization of MS-BW-17; also called MS-BW-17-1 Fab; BW-17-1 Fab

Kd (human TIMP-1 [17]): ~0.4 nM
B6: MS-BW-3 IgG1 (antibody, V domains shown)
VH: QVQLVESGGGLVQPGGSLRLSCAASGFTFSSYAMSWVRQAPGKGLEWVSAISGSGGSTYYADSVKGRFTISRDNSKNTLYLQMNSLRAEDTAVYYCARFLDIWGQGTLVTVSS
VL: DIALTQPASVSGSPGQSITISCTGTSSDVGGYNYVSWYQQHPGKAPKLMIYDVSNRPSGVSNRFSGSKSGNTASLTISGLQAEDEADYYCQSYDFLRFSVFGGGTKLTVL
notes: Variable regions of Fab MS-BW-3 cloned into human IgG1 vectors; also called negative control IgG1 MS-BW-3; control antibody; copies: 2 + 2

IC50 in rat protease assay (rat TIMP-1 [13]): 14 nM
Kd (rat TIMP-1 [18]): 10 nM
Kd (rat TIMP-1 [19]): 13 nM
Kd (rat TIMP-1 [15]): 10 nM
IC50 in rat protease assay (rat TIMP-1 [20]): 14 nM
IC50 (50 % reversal of the inhibition of rat MMP-13 by rat TIMP-1, fluorogenic peptide substrate assay) (rat TIMP-1 [21]): ~11 nM
B7: MS-BW-14 (Fab, V domains shown)
VH: QVQLVQSGAEVKKPGSSVKVSCKASGGTFSSYAISWVRQAPGQGLEWMGGIIPIFGTANYAQKFQGRVTITADESTSTAYMELSSLRSEDTAVYYCARWSDQSYHYYWHPYFDVWGQGTLVTVSS
VL: DIVLTQPPSVSGAPGQRVTISCSGSSSNIGSNYVSWYQQLPGTAPKLLIYDNNQRPSGVPDRFSGSKSGTSASLAITGLQSEDEADYYCQSWDLEPYVFGGGTKLTVLG
notes: Fab, FLAG + Strep-tag II; not tied by name; also called MS-BW-14 Fab

IC50 (50 % reversal of the inhibition of rat MMP-13 by rat TIMP-1, fluorogenic peptide substrate assay) (rat TIMP-1 [21]): ~7 nM
Kd (rat TIMP-1 [22]): 0.2 nM
B8: MS-BW-14 IgG1 (antibody, V domains shown)
VH: QVQLVQSGAEVKKPGSSVKVSCKASGGTFSSYAISWVRQAPGQGLEWMGGIIPIFGTANYAQKFQGRVTITADESTSTAYMELSSLRSEDTAVYYCARWSDQSYHYYWHPYFDVWGQGTLVTVSS
VL: DIVLTQPPSVSGAPGQRVTISCSGSSSNIGSNYVSWYQQLPGTAPKLLIYDNNQRPSGVPDRFSGSKSGTSASLAITGLQSEDEADYYCQSWDLEPYVFGGGTKLTVL
notes: Variable regions of Fab MS-BW-14 cloned into human IgG1 vectors; also called IgG1 protein MS-BW-14; copies: 2 + 2
